This passage reports donors, wells and Peptide exchange results from patent US10745460B2, “Peptides and combination of peptides for use in immunotherapy against various tumors” (Immatics Biotechnologies GmbH, priority 2015, dated 2020).

The subject of one assay is CD8+ T cells. The assay can be described thus: In vitro T-cell priming assay with aAPCs loaded with peptide/MHC complexes and anti-CD28 antibody (in vitro immunogenicity). The settings on record: percentage of positive donors, healthy HLA-A*02 donors. It is filed as cell-based, human. From the text:
In order to obtain information regarding the immunogenicity of the TUMAPs of the present invention, the inventors performed investigations using an in vitro T-cell priming assay based on repeated stimulations of CD8+ T cells with artificial antigen presenting cells (aAPCs) loaded with peptide/MHC complexes and anti-CD28 antibody.
In order to perform in vitro stimulations by artificial antigen presenting cells loaded with peptide-MHC complex (pMHC) and anti-CD28 antibody, the inventors first isolated CD8+ T cells from fresh HLA-A*02 leukapheresis products via positive selection using CD8 microbeads (Miltenyi Biotec, Bergisch-Gladbach, Germany) of healthy donors obtained from the University clinics Mannheim, Germany, after informed consent. […] Generation of pMHC/anti-CD28 coated beads, T-cell stimulations and readout was performed in a highly defined in vitro system using four different pMHC molecules per stimulation condition and 8 different pMHC molecules per readout condition. […]
800.000 beads/200 μl were coated in 96-well plates in the presence of 4×12.5 ng different biotin-pMHC, washed and 600 ng biotin anti-CD28 were added subsequently in a volume of 200 μl. […] Peptide specific cells were calculated as percentage of total CD8+ cells. […] In vitro priming of specific multimer+ CD8+ lymphocytes was detected by comparing to negative control stimulations. […]
For “288 (SLYKGLLSV; listed as Homo sapiens) [compound 288]”, the donors result is “++++ (>=70% = ++++)”.

Staying with this assay, now noted: percentage of positive wells, healthy HLA-A*02 donors.
For the substance “287 (KIQEILTQV; listed as Homo sapiens) [compound 287]”, the wells result was “+ (<20% = +)”.

A further assay deals with HLA-A*02:01 (Homo sapiens, UniProt P04439, D140Y/D185E/D98H/E176V/E277Q/G131W/G231S/I119V/I121R/I166T/I218V/L300P/L318F/N151K/N90K/P208A/P217A/Q86G/Q94H/R138H/R169H/T345S). The assay can be described thus: MHC binding assay: UV-ligand exchange with β2m ELISA (peptide exchange yield). The settings on record: binding to HLA-A*02:01 evaluated by peptide exchange yield (UV-ligand exchange, β2m ELISA). The gist of the method:
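UV-cleavable peptide in HLA monomers exchanged for test peptide by UV irradiation; exchange yield measured by streptavidin-capture ELISA with HRP anti-β2m (TMB, 450 nm) on 100-fold diluted complexes. Quantified against refolded HLA-A*02:01/MLA-001 standards (15-500 ng/ml).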
For the substance “274 (TLYNPERTITV; listed as Homo sapiens) [compound 274]”, the Peptide exchange result is “+++ (≥50 = +++)”. Take “275 (AVPPPPSSV; listed as Homo sapiens) [compound 275]”: the Peptide exchange result is “++ (≥20% = ++)”. Same read-out and setting: under “276 (RMPTVLQCV; listed as Homo sapiens) [compound 276]” stands “+++ (≥50 = +++)”.

As for “277 (KLQEELNKV; listed as Homo sapiens) [compound 277]”, the Peptide exchange entry is “+++ (≥50 = +++)”.

Take “278 (VLEDKVLSV; listed as Homo sapiens) [compound 278]”: the Peptide exchange result is listed as “+++ (≥50 = +++)”. Take “279 (VLMDEGAVLTL; listed as Homo sapiens) [compound 279]”: the Peptide exchange result is on record as “++ (≥20% = ++)”.

For the substance “280 (HLWGHALFL; listed as Homo sapiens) [compound 280]”, the Peptide exchange result is “+++ (≥50 = +++)”.

Take “281 (LLLESDPKVYSL; listed as Homo sapiens) [compound 281]”: the Peptide exchange result is reported as “++ (≥20% = ++)”. Same read-out and setting: under “282 (SLYALHVKA; listed as Homo sapiens) [compound 282]” stands “++ (≥20% = ++)”. Same read-out and setting: the entry for “283 (ALSELLQQV; listed as Homo sapiens) [compound 283]” is “+++ (≥50 = +++)”; for “284 (KLMDPGSLPPL; listed as Homo sapiens) [compound 284]” it is “++ (≥20% = ++)”; for “285 (MLLDTVQKV; listed as Homo sapiens) [compound 285]” it is “+++ (≥50 = +++)”. Take “286 (FLTEMVHFI; listed as Homo sapiens) [compound 286]”: the Peptide exchange entry was “+++ (≥50 = +++)”.
